Values of other authors as cited in publication PMC9221339.
pKd: −log10 of the molar value.

Target: IGF-II (Homo sapiens) (UniProt P01344)
Sequence (P01344 25-91): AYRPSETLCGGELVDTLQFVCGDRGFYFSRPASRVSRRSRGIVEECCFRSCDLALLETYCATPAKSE

IGF-1R, sequence (P08069 31-736): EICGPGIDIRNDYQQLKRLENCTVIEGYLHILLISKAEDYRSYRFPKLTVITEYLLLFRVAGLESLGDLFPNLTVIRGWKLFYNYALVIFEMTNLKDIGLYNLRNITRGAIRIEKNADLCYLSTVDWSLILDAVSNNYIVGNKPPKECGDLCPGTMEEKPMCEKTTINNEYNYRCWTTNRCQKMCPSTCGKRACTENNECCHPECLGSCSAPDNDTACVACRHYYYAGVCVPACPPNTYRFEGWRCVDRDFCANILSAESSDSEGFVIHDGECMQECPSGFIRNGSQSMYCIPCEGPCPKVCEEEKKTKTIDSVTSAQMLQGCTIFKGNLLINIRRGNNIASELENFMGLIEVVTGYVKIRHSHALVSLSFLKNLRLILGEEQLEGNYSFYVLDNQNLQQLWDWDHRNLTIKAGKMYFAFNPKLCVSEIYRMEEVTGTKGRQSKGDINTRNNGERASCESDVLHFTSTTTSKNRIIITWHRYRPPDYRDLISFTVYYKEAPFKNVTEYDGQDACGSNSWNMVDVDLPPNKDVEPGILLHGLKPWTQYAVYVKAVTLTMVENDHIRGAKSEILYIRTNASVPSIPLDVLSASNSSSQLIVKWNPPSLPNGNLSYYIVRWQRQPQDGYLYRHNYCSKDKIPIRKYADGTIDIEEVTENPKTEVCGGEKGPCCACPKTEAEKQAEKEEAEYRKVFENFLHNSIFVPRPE
IGF-1R, sequence (P08069 741-935): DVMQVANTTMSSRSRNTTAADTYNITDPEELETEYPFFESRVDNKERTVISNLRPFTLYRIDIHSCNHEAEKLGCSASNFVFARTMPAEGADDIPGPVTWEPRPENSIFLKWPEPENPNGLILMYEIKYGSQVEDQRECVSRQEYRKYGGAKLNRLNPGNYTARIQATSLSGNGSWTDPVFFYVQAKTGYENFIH

- pKd: 8.52
Substance: IGF-1R (from UniProt P08069)
